From US8088387B2, “Method of targeting specific cell populations using cell-binding agent maytansinoid conjugates linked via a non-cleavable linker, said conjugates, and methods of making said conjugates” (Immunogen Inc., priority 2003, dated 2012)

Assays:
[1] = test system: COLO205 cells; experiment: cell cycle arrest by flow cytometry; format: cell-based, human; details: 30 hours post-treatment
Experimental: Maytansinoid conjugates are thought to impart their cell destroying activity through the inhibition of microtubule polymerization. This inhibition of microtubule polymerization leads to an arrest of the cell cycle principally at G2/M. The antigen-dependent arrest of cells at G2/M by antibody-maytansinoid conjugates can be monitored by flow cytometry analysis (FIG. 13). Treatment of COLO205 cells with huC242-SPP-DM1 or huC242-SMCC-DM1 conjugate results in a complete G2/M arrest by 6-10 hours. […] The difference in the durability of the activity of these two conjugates is also reflected in percentage of dead cells at the 30 hour time point, as judged by a dye exclusion assay using trypan blue.

[2] = test system: COLO 205 colon tumor xenografts; experiment: COLO 205 colon tumor xenografts in SCID mice; format: in vivo
Experimental: (§1) Antibody conjugates with DM1 using the SMCC linker show anti-tumor efficacy against human tumor xenografts in mice (FIGS. 10A-C). […] In this experiment, one group of five animals bearing established subcutaneous tumors was treated with huC242-SMCC-DM1 at a dose of 150 μg/kg of conjugated DM1. Tumor sizes were measured periodically and graphed vs. time after tumor inoculation. […] In this experiment, three groups of five animals each bearing established subcutaneous SNU tumors were treated with huC242-SMCC-DM1 at doses of 15 μg/kg, 30 μg/kg, and 60 μg/kg of conjugated DM1, respectively. Tumor sizes were measured periodically and graphed vs. time after tumor inoculation.

[3] = test system: Namalwa cells; experiment: cell destroying activity, antigen-negative cells (bystander study); format: cell-based
Text: (§2) An additional aspect of conjugates prepared with non-cleavable linkers compared to conjugates that have cleavable disulfide linkers is the absence of activity toward antigen-negative cells when in close proximity to antigen-positive cells, termed here the bystander effect. That is, the conjugates prepared with non-cleavable linkers have minimal bystander activity. […] This minimal bystander activity of the non-cleavable conjugate, as measured in this in vitro assay, may contribute to the increased tolerability of conjugate with non-cleavable linkers observed in acute toxicity studies.

[4] = acute toxicity test, single intravenous dose; format: in vivo, female CD-1 mice; details: single intravenous dose
Experimental: Maytansinoid conjugates prepared with non-cleavable linkers such as SMCC show an unexpected increased tolerability in mice compared with conjugates prepared with cleavable disulfide linkers. An acute toxicity test with a single intravenous dose was carried out in female CD-1 mice. A comparison of the tolerability of a huC242-SMCC-DM1 conjugate (non-cleavable) with huC242 conjugates prepared with linkers containing cleavable disulfide bonds was conducted by monitoring the death of mice (FIGS. 12A and B) and signs of toxicity (FIGS. 12C and D) over a series of four escalating doses of each conjugate. The maximum tolerated dose (MTD) for the SMCC-DM1 conjugate was greater than the highest dose tested (150 mg/kg) while the MTD for the disulfide-linked conjugate SPP-DM1 was in the range of 45-90 mg/kg.

[5] = test system: A375 cells; experiment: continuous exposure clonogenic assay, antigen-negative cells; format: cell-based, human
Text: (§3) Cell-binding agent maytansinoid conjugates of the invention can be evaluated for their ability to suppress proliferation of various cell lines in vitro. For example, cell lines such as the human colon carcinoma line COLO205, the human melanoma cell line A375, the human myeloid leukemia cell line HL60, the human breast carcinoma line SKBR3, or the human epidermoid carcinoma cell line KB can be used for the assessment of cytotoxicity of these conjugates. Cells to be evaluated can be exposed to the compounds for 24 hours and the surviving fractions of cells measured in direct assays by known methods. (See, e.g. Goldmacher et al., 135 J. Immunol. 3648-3651 (1985), and Goldmacher et al., 102 J. Cell Biol. 1312-1319 (1986).) IC50 values can then be calculated from the results of the assays.
(§4) The in vitro cytotoxicity and specificity of the huC242-SMCC-DM1 conjugate were evaluated using a continuous exposure clonogenic assay.

[6] = test system: COLO 205 cells; experiment: indirect FACS binding assay on COLO 205 cells; design: species or system human; details: 5×10^3 cells per well, three hour primary incubation on ice
Experimental: The inventors carried out binding and cytotoxicity studies on the huC242-non-S-containing non-cleavable linker-DM1 conjugate. First, the binding affinities of huC242 antibody, huC242-SMNP-DM3, and huC242-non-S-containing non-cleavable linker-DM1 to COLO 205 cells were compared. 5×10^3 cells per well were used, with a three hour primary incubation on ice. The huC242-non-S-containing non-cleavable linker-DM1 conjugate had about a two-fold higher apparent dissociation constant than free antibody (see FIG. 23).

[7] = test system: SNU16 human gastric tumor xenografts; experiment: SNU16 human gastric tumor xenografts in SCID mice; format: in vivo
Experimental: as §1

[8] = plasma clearance of conjugates; format: in vivo
Text: This is in sharp contrast to plasma clearance of conjugates prepared with relatively labile disulfide bonds such as huC242-SPP-DM1. […] The non-cleavable SMCC linkage is therefore much more resistant to maytansinoid-linker cleavage activities present in vivo than the SPP-DM1 conjugate. […] This increased exposure could have substantial impact on drug efficacy in some cases.

[9] = in vitro clonogenic / indirect cytotoxicity assays, cell line not given; format: cell-based; details: clonogenic (FIG. 6A-C) and indirect cytotoxicity assays (FIG. 7)
Text: as §3

[10] = test system: SKBR3 cells; experiment: continuous exposure clonogenic assay, antigen-positive cells; format: cell-based, human
Text: as §3, §4

[11] = Pharmacokinetic Studies of huC242-SPP-DM1 and huC242-SCC-DM1 conjugates inCD-1 Mice Plasma clearance curves and Pharmacokinetic parameters
Text: Table printed on a drawing sheet, FIG. 11
Title: Pharmacokinetic Studies of huC242-SPP-DM1 and huC242-SCC-DM1 conjugates inCD-1 Mice Plasma clearance curves and Pharmacokinetic parameters
First reader's note: Rows without -DM1 (huC242-SMCC, huC242-SPP) appear to be the antibody component of the same conjugates, as in the plot legend; study in CD-1 mice.

[12] = test system: COLO 205 cell line; experiment: cell destroying activity, antigen-positive cells (bystander study); format: cell-based, human; details: COLO 205 cultured separately
Text: as §2

[13] = 150 μg/kg of conjugated DM1, of five animals

B1: huC242-SMCC-DM1: huC242 antibody linked to maytansinoid DM1 via the non-cleavable linker SMCC (conjugate, chains of the INN, looked up)
VH: QVQLVQSGAEVKKPGETVKISCKASDYTFTYYGMNWVKQAPGQGLKWMGWIDTTTGEPTYAQKFQGRIAFSLETSASTAYLQIKSLKSEDTATYFCARRGPYNWYFDVWGQGTTVTVSS
VL: DIVMTQSPLSVPVTPGEPVSISCRSSKSLLHSNGNTYLYWFLQRPGQSPQLLIYRMSNLVSGVPDRFSGSGSGTAFTLRISRVEAEDVGVYYCLQHLEYPFTFGPGTKLELK
modifications: DM1 via SMCC linker
With B1 the “durability of cell cycle arrest” value [1] was “do not escape from the cell cycle block”, the tumor response ([2]; 150 μg/kg of conjugated DM1, five animals, established subcutaneous tumors) was “All five treated animals had a complete remission” and the “animals that relapsed after complete remission” value [2, 13] was “three”. For the same molecule, the “animals tumor-free until termination of the experiment” value [2, 13] was “two”, the “effect on mouse body weight” value ([2]; at conjugate doses with anti-tumor activity) was “no effect on mouse body weight” and the “time some mice remained free of detectable tumors post-treatment” value ([2]; sentence citing FIG. 10B, text prints COLO 205) was “over 2 months”. For the same molecule, the “tumor response (sentence citing FIG. 10B)” value ([2]; text prints COLO 205 colon carcinoma xenografts) was “complete regression of tumors”, the cell destroying activity ([3]; Namalwa cultured separately) was “no activity” and the “bystander cell destroying activity toward Namalwa cells” value ([3]; co-cultures of COLO 205 and Namalwa cells) was “No cell destroying activity”. The “survival / lethal toxicity” value ([4]; at 150 mg/kg) was “all mice in the SMCC-DM1 treated group survived”, the “maximum tolerated dose (MTD)” value ([4]; female CD-1 mice) was over 150 mg/kg and the “fold less sensitive than SKBR3 cells” value ([5]; antigen negative A375 vs antigen positive SKBR3) was “about 800 fold”. For the same molecule, the IC50 ([5]; antigen-negative A375 cells, continuous exposure clonogenic assay) was over 3000 pM, the Kd [6] was 552 pM and the antitumor effect ([7]; 15, 30 and 60 μg/kg of conjugated DM1, established subcutaneous SNU tumors) was “dose-dependent antitumor effect”. For the same molecule, the “effect on mouse body weight” value ([7]; at active conjugate concentration) was “no effect on mouse body weight”, the “increase in overall maytansinoid exposure (AUC) compared to SPP-DM1 conjugates” value ([8]; area under the curve) was about 5 fold and the half-life for clearance ([8]; plasma, conjugate, FIG. 11) was “approximately 320 hours”. For the same molecule, the “potency compared to conjugates prepared with disulfide-containing linkers” value [9] was “equal or greater potency”, the IC50 [10] was 3.5 pM and the “AUC |” value [11] was 40374.2 µg·h/mL. The “CL |” value [11] was 7.2 mL/day/kg, the “Vss |” value [11] was 0.1125 L/kg and the “t1/2 | hour” value [11] was 13.26 days. The cell destroying activity [12] was “potent cell destroying activity”.
